Substitutions are numbered along the chain they refer to. Each block holds one binder with its values, some of them ahead of it.
What was measured:
[1] = molecular target: T1, human AXL on the surface of tumor cells (human, UniProt P30530 26-894); assay: FACS on MDA-MB-231 cells
T1 construct: whole, on cells; endogenous protein of human tumor cell lines; the cell line is named under assay or readout; also called AXL on the cell surface
T1 sequence (looked up): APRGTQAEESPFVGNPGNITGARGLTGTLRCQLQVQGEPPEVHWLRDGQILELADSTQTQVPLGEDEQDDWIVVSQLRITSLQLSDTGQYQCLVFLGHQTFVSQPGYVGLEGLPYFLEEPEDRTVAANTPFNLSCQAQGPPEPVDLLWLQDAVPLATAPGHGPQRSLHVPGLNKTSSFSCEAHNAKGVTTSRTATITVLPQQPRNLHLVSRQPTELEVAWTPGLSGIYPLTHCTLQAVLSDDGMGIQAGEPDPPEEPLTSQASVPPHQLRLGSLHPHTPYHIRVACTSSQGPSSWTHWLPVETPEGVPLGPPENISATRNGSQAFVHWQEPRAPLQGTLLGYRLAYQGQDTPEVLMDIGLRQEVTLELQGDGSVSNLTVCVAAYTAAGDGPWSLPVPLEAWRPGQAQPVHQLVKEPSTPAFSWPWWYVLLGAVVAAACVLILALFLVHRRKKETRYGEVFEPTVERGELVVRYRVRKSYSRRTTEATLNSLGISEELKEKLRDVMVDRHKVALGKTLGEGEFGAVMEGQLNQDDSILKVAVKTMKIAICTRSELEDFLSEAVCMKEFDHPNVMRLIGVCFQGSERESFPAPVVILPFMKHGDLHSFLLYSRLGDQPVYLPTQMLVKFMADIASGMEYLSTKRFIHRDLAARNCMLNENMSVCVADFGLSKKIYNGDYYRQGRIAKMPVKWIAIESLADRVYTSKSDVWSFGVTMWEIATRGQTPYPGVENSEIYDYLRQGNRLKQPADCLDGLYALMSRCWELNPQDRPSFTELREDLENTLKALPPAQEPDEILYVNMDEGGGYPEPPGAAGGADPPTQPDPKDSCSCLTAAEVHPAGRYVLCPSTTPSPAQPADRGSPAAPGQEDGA
Description: Then the obtained solutions were incubated at 4° C. for 1 h, the cells were washed twice with PBS to remove unbound primary antibody, and then the target cells were incubated with 200 μL PE-labeled secondary antibody (2 μg/mL) at 4° C. for 30 min. The cells were washed twice with PBS to remove unbound secondary antibody. Finally, the cells were resuspended in 200 μL PBS, and the binding affinity of the test antibody to AXL on the cell surface was determined by a flow cytometer (FACSCalibur)
24 humanized antibodies in Table-6 were diluted by gradient, and their affinities to AXL, on the surface of MDA-MB-231 cells were determined by flow cytometer. The experimental method was referred to Example 8.

[2] = molecular target: T2, extracellular domain of human AXL protein (AXL-ECD) (human, UniProt P30530 31-449); assay: ELISA, plate-coated AXL-ECD
T2 construct: expressed in HEK293T cells; coated on the ELISA plate; also called AXL-ECD protein; human AXL extracellular domain protein
T2 sequence: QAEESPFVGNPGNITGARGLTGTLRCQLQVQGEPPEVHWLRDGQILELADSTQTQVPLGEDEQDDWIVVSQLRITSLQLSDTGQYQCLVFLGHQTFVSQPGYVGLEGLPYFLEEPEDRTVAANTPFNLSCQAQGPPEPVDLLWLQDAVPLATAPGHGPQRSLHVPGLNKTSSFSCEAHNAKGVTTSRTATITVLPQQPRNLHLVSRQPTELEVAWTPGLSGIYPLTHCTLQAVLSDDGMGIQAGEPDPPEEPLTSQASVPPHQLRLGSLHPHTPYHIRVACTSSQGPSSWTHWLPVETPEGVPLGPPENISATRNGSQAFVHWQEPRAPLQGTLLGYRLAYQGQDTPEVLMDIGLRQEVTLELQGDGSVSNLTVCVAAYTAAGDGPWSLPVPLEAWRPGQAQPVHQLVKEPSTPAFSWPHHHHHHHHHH
Description: The extracellular domain of AXL protein (AXL-ECD) was diluted to […] with the coating solution, and coated onto ELISA plate with 100 μL/well at 4° C. overnight. The excess antigen was washed off. The plate was blocked with 1% BSA at room temperature for 2 h, then each monoclonal antibody in a 3-fold dilution was added at 100 µL/well. The plate was incubated at room temperature for 1 h; the unbound antibody was washed off, and appropriate concentration of anti-mouse secondary antibody labeled with horseradish peroxidase was added at 100 µL/well. The plate was incubated at room temperature for 0.5 h. The unbound secondary antibody was washed off. TMB Substrate was added and reacted for about 15 minutes. 1N HCL was added at 50 µL/well to stop the color reaction. Then the absorbance was measured at 450 nm and the obtained data was analyzed.
24 humanized antibodies in Table-6 were diluted by gradient, and their affinity to AXL-ECD protein was determined by ELISA. The experimental method was referred to Example 4.

B1: Hu002-3 (antibody, V domains shown)
VH: QVQLVQSGAEVKKPGASVKVSCKASGYPFTDFYINWVKQAPGQGLEWIGWIYPGSGNTKYNEKFKGRVTLTVDTSISTAYMELSRLRSDDTAVYYCARSTGFFDYWGQGTLVTVSS
VL: EIVLTQSPATLSLSPGERATLSCSASSSIGYMYWYQQKPGQAPRLLIYLTSNLASGIPARFSGSGSGTDFTLTISSLEPEDFAVYYCQQWSSNPPTFGQGTKLEIK
notes: humanized from mAb002c; also called Hu002c-3
EC50 [1]: 0.108 nM
Highest MFI value (FACSCalibur) [1]: 277 MFI
EC50 [2]: 0.048 nM
TOP (OD450) [2]: 3.6 OD450

B2: Hu002-17 (antibody, V domains shown)
VH: B1 VH with K38R, I48M
VL: EIVLTQSPDFQSVTPKEKVTITCSASSSIGYMYWYQQKPDQSPKLLIYLTSNLASGVPSRFSGSGSGTDYTLTINSLEAEDAATYYCQQWSSNPPTFGQGTKLEIK
notes: humanized from mAb002c; also called Hu002c-17
EC50 [1]: 0.107 nM
Highest MFI value (FACSCalibur) [1]: 269 MFI
EC50 [2]: 0.045 nM
TOP (OD450) [2]: 3.71 OD450

B3: Hu002-8 (antibody, V domains shown)
VH: B1 VH with K38R, I48M
VL: B1 VL with A42S, L45S, F70Y
notes: humanized from mAb002c; also called Hu002c-8
EC50 [1]: 0.138 nM
Highest MFI value (FACSCalibur) [1]: 270 MFI
EC50 [2]: 0.049 nM
TOP (OD450) [2]: 3.59 OD450

B5: Hu002-7 (antibody, V domains shown)
VH: B1 VH with K38R, I48M, L70M, V72R
VL: B1 VL with A42S, L45S, F70Y
notes: humanized from mAb002c; also called Hu002c-7
EC50 [1]: 0.129 nM
Highest MFI value (FACSCalibur) [1]: 275 MFI
EC50 [2]: 0.058 nM
TOP (OD450) [2]: 3.59 OD450

B7: Hu002-10 (antibody, V domains shown)
VH: B1 VH with K38R, I48M, L70M, V72R
VL: B1 VL with E1Q, A42S, L45S, F70Y
notes: humanized from mAb002c; also called Hu002c-10
EC50 [1]: 0.118 nM
Highest MFI value (FACSCalibur) [1]: 273 MFI
EC50 [2]: 0.068 nM
TOP (OD450) [2]: 3.58 OD450

B8: Hu002-9 (antibody, V domains shown)
VH: B1 VH
VL: B1 VL with A42S, L45S, F70Y
notes: humanized from mAb002c; also called Hu002c-9
EC50 [1]: 0.121 nM
Highest MFI value (FACSCalibur) [1]: 268 MFI
EC50 [2]: 0.067 nM
TOP (OD450) [2]: 3.62 OD450

B10: Hu002-6 (antibody, V domains shown)
VH: B1 VH
VL: B1 VL with F70Y
notes: humanized from mAb002c; also called Hu002c-6
EC50 [1]: 0.101 nM
Highest MFI value (FACSCalibur) [1]: 271 MFI
EC50 [2]: 0.052 nM
TOP (OD450) [2]: 3.63 OD450

B11: Hu002-11 (antibody, V domains shown)
VH: B1 VH with K38R, I48M
VL: B1 VL with E1Q, A42S, L45S, F70Y
notes: humanized from mAb002c; also called Hu002c-11
EC50 [1]: 0.123 nM
Highest MFI value (FACSCalibur) [1]: 271 MFI
EC50 [2]: 0.043 nM
TOP (OD450) [2]: 3.74 OD450

Next, values leading:

EC50 [1]: 0.116 nM
Highest MFI value (FACSCalibur) [1]: 261 MFI
EC50 [2]: 0.045 nM
TOP (OD450) [2]: 3.73 OD450
B4: Hu002-12 (antibody, V domains shown)
VH: B1 VH
VL: B1 VL with E1Q, A42S, L45S, F70Y
notes: humanized from mAb002c; also called Hu002c-12

EC50 [1]: 0.094 nM
Highest MFI value (FACSCalibur) [1]: 264 MFI
EC50 [2]: 0.052 nM
TOP (OD450) [2]: 3.72 OD450
B6: Hu002-14 (antibody, V domains shown)
VH: B1 VH with K38R, I48M
VL: B2 VL with Y48K, Y70F
notes: humanized from mAb002c; also called Hu002c-14

EC50 [1]: 0.073 nM
Highest MFI value (FACSCalibur) [1]: 262 MFI
EC50 [2]: 0.047 nM
TOP (OD450) [2]: 3.73 OD450
B9: Hu002-13 (antibody, V domains shown)
VH: B1 VH with K38R, I48M, L70M, V72R
VL: B2 VL with Y48K, Y70F
notes: humanized from mAb002c; also called Hu002c-13

EC50 [1]: 0.099 nM
Highest MFI value (FACSCalibur) [1]: 268 MFI
EC50 [2]: 0.05 nM
TOP (OD450) [2]: 3.72 OD450
B12: Hu002-15 (antibody, V domains shown)
VH: B1 VH
VL: B2 VL with Y48K, Y70F
notes: humanized from mAb002c; also called Hu002c-15
